Measured values: IntAct's records for PubMed 19412162

Target: fbx31_human FBXO31 (UniProt Q5XUX0)
UniProt Q5XUX0, sequence (Q5XUX0 whole entry): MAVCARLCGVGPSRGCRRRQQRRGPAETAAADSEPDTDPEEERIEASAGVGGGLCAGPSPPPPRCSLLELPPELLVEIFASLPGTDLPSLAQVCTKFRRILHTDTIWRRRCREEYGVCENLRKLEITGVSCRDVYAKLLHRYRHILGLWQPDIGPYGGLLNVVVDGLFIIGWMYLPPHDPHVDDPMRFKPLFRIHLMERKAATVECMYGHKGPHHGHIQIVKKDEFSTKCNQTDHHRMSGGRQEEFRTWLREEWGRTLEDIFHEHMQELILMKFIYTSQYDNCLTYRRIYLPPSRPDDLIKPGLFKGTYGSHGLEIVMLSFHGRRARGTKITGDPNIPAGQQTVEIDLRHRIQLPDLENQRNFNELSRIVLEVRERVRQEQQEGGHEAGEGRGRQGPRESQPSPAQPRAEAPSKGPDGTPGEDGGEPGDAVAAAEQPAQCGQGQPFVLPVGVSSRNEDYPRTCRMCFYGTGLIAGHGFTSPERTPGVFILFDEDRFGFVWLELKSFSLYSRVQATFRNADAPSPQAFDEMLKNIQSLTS

effect of a mutation on the interaction: disrupting interaction
Substance: Serine-protein kinase ATM (Homo sapiens), Q13315 D2870A;N2875K
